The results in this text go back to patent publication US20240024520A1 (UCB, published 2024).

The assay deals with T1, human complement component C5 (human, UniProt P01031 19-673; P01031 678-1676).
T1 construct: mature; Mature C5 is a disulphide-linked beta and alpha chain cut from one precursor; Terbium-labelled in the FRET assays, biotinylated in part of the phage ELISA; also called human C5; C5-Tb
Nature of the assay: SPR multi-cycle kinetics, human C5 immobilised, mean of n=3.

Usually Kd stands for the free concentration of one partner at which half of the binding sites on the other are occupied at equilibrium, for simple one-to-one binding. A lower Kd goes with higher affinity. A word on the koff: it is the rate constant with which the complex falls apart. Higher therefore signals fast dissociation. As usually defined, the kon is the rate constant with which the complex forms. A low value points to slow association.

T1 sequence (P01031 19-673 limits assumed, chain 1 of 2): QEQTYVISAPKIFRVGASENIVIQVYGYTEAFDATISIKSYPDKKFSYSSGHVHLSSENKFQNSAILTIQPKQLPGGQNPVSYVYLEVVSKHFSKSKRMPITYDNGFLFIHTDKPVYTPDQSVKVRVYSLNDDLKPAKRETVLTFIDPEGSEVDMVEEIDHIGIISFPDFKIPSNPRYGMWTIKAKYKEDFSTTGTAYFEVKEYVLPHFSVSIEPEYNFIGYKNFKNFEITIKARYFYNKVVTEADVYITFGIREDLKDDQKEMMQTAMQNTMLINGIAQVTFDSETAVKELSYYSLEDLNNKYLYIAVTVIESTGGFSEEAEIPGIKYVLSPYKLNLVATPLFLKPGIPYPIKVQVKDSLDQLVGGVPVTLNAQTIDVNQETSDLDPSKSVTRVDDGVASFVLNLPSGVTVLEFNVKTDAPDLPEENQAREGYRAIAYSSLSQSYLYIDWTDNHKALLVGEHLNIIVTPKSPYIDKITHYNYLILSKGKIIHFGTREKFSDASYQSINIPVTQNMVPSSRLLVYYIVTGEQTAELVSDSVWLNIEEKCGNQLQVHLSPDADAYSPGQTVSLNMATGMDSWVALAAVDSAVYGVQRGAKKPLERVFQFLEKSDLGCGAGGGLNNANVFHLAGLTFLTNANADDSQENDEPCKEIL
T1 sequence (P01031 678-1676 limits assumed, chain 2 of 2): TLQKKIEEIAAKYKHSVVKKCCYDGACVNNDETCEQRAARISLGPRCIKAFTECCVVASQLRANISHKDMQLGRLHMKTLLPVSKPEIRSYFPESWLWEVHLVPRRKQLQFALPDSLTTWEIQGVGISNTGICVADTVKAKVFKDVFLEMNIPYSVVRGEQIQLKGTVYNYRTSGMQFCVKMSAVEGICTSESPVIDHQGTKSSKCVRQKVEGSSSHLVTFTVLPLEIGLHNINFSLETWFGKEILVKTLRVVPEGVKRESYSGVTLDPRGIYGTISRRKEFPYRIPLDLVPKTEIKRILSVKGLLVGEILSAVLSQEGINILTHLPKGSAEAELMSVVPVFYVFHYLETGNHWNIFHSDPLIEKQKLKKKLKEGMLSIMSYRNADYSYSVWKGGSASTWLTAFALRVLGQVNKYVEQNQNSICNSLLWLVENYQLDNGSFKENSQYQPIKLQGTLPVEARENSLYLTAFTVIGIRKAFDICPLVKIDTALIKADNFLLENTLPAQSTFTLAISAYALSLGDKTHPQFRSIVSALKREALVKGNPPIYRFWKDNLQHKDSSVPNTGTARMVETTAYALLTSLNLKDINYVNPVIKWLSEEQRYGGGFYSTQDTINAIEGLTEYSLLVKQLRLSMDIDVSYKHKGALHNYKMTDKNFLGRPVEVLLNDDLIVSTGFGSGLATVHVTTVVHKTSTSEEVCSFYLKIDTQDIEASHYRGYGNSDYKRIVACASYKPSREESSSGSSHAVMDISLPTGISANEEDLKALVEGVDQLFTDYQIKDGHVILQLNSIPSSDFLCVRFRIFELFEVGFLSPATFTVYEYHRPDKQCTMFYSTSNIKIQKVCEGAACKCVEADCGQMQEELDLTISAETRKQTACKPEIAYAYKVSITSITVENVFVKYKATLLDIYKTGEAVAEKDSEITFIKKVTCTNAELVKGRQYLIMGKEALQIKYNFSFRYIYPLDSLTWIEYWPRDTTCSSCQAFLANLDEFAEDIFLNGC

In the case of TCPEGWSECGVAIYGYECGRWGCGHALNSGPNISPYVST [K92chemFE F26A], the Kd was 18.8 nM, the dissociation rate constant (koff) was 0.00328 s⁻¹ and the kon worked out at 184000 M⁻¹ s⁻¹.

TCPEGWSECGVAIAGYECGRWGCGHFLNSGPNISPYVST [K92chemFE Y14A] gave a Kd of 3.62 nM, a koff of 0.0001 s⁻¹ and a kon of 27200 M⁻¹ s⁻¹.

With TCPEGASECGVAIYGYECGRWGCGHFLNSGPNISPYVST [K92chemFE W6A], the Kd turned out to be 219 nM, the koff amounted to 0.00157 s⁻¹ and the kon turned out to be 7980 M⁻¹ s⁻¹.

TCPEGWSECGVAIYGYECGRAGCGHFLNSGPNISPYVST [K92chemFE W21A] registered a dissociation constant Kd of 497 nM, a koff of 0.00848 s⁻¹ and a kon of 17400 M⁻¹ s⁻¹.

TCPEGWSECGVAIYGYECGRHGCGHFLNSGPNISPYVST [K92chemFE W21H] had a Kd of 1.48 nM, a koff of 0.000612 s⁻¹ and a kon of 425000 M⁻¹ s⁻¹.

TCPEGWSECGVAIYGAECGRWGCGHFLNSGPNISPYVST [K92chemFE Y16A]: the Kd is 221 nM and the koff came out at 0.786 s⁻¹.
